B1: EKC/KEOPS complex subunit BUD32 (Saccharomyces cerevisiae), P53323 (parent)
chain: MTQEFIDKVSSYLTPDVDIAPISQGAEAIVFTTTTHPYLPRAKDSHQKYIIKYRPPKRYRHPQIDQALTKHRTLNESRLLAKLYLIPGLCVPQLIACDPYNGFIWLEFLGEDLPGGHGFSNLKNFLWMHDQDPYSDLVATTLRKVGRQIGLLHWNDYCHGDLTSSNIVLVRDGARWTPHLIDFGLGSVSNLVEDKGVDLYVLERAILSTHSKHAEKYNAWIMEGFEEVYREQGAKGAKKLKEVTKRFEEVRLRGRKRSMLG
partner: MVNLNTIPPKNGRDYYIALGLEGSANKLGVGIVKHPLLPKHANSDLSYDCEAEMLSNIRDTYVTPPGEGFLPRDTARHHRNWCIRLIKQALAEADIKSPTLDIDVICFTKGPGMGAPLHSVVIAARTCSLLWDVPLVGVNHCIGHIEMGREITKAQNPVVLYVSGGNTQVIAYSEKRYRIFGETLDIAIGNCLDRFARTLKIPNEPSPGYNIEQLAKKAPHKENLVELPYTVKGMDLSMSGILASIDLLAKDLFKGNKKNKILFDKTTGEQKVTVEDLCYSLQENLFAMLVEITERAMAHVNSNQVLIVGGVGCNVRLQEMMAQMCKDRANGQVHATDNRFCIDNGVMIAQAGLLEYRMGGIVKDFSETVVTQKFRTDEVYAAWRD
B2: tRNA N6-adenosine threonylcarbamoyltransferase (Saccharomyces cerevisiae), P36132 (parent)
chain: B1 partner
B3: EKC/KEOPS complex subunit BUD32 (Saccharomyces cerevisiae), P53323 (parent)
chain: B1 chain
partner: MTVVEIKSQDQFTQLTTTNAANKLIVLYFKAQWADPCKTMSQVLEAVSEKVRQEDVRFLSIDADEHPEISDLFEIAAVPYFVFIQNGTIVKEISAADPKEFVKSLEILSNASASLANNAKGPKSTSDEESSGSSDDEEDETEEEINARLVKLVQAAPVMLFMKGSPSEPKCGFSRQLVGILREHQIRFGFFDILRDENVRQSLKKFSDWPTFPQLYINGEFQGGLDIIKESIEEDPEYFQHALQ

Variants of: B1
Conditions: with kae1_yeast KAE1, P36132
With Y59E the “effect of a mutation on the interaction” value was “disrupting interaction”.

Variants of: B1
Conditions: with kae1_yeast KAE1, P36132
Remark: another data set of the same source
In the case of K57E, the “effect of a mutation on the interaction” value is reported as “disrupting interaction”.

Variants of: B1
Conditions: with kae1_yeast KAE1, P36132
Remark: another data set of the same source
R60E was tested, and the “effect of a mutation on the interaction” value was “disrupting interaction”.

Variants of: B1
Conditions: with kae1_yeast KAE1, P36132
Remark: another data set of the same source
In the case of R72E, the “effect of a mutation on the interaction” value is reported as “decreasing interaction”.

Variants of: B2
Conditions: with bud32_yeast BUD32, P53323
E295R was tested, and the “effect of a mutation on the interaction” value was “disrupting interaction”.
E292R was tested, and the “effect of a mutation on the interaction” value was “disrupting interaction”.

Variants of: B2
Conditions: with bud32_yeast BUD32, P53323
Remark: another data set of the same source
With D236R the “effect of a mutation on the interaction” value was “decreasing interaction”.

Variants of: B3
Conditions: with glrx4_yeast GRX4, P32642
With D161A the “effect of a mutation on the interaction” value was “disrupting interaction”.

— IntAct's records for PubMed 19172740
